# From patent publication EP4671273A1 (Anaveon AG, dated 2025)
# Substitutions are numbered along the chain they refer to.
# B1: ZAP122m1 Fab (Fab, V domains shown)
# VH: QVQLQESGPGLVKPSETLSLTCTVSGGSISSDFWGWIRQPPGKGLEWIGYISSRGSTNYNPSLKRRVTISVDTSRNQFSLKLSSVTAADTAVYYCARSAGVTDFDFWGQGTLVTVSS
# VL: DIQMTQSPSSVSASVGDRVTITCRASQGISSWLAWYYHKPGKAPKLLIYVASSLQSGVPSRFSGSGSGTDFTLTISSLQPEDFATYYCQQANSFPLTFGGGTKVEIK
# notes: Fab
# B2: ZAP122m2 Fab (Fab, V domains shown)
# VH: B1 VH with R75K
# VL: B1 VL with Y37Q
# notes: Fab
# B3: ZAP122m3 Fab (Fab, V domains shown)
# VH: B1 VH
# VL: B1 VL with Y37Q, V50A
# notes: Fab
# B4: ZAP122m4 Fab (Fab, V domains shown)
# VH: B1 VH
# VL: B1 VL with Y37Q, Q89A
# notes: Fab
# B5: ZAP122m5 Fab (Fab, V domains shown)
# VH: B1 VH
# VL: B1 VL with Y37Q, Q90A
# notes: Fab
# B6: ZAP122m6 Fab (Fab, V domains shown)
# VH: B1 VH
# VL: B1 VL with Y37Q, N92A
# notes: Fab
# B7: ZAP122m7 Fab (Fab, V domains shown)
# VH: B1 VH
# VL: B1 VL with Y37Q, S93A
# notes: Fab
# B8: ZAP122m8 Fab (Fab, V domains shown)
# VH: B1 VH
# VL: B1 VL with Y37Q, F94A
# notes: Fab
# B9: ZAP122m9 Fab (Fab, V domains shown)
# VH: B1 VH
# VL: B1 VL with Y37Q, P95A
# notes: Fab
# B10: ZAP122m10 Fab (Fab, V domains shown)
# VH: B1 VH
# VL: B1 VL with Y37Q, L96A
# notes: Fab
# B11: ZAP122m11 Fab (Fab, V domains shown)
# VH: B1 VH
# VL: B1 VL with Y37Q, T97A
# notes: Fab
# B12: ZAP122m12 Fab (Fab, V domains shown)
# VH: B1 VH with D32Y
# VL: B1 VL with Y37Q
# notes: Fab
# B13: ZAP122m13 Fab (Fab, V domains shown)
# VH: B1 VH with F33Y
# VL: B1 VL with Y37Q
# notes: Fab
# B14: ZAP122m14 Fab (Fab, V domains shown)
# VH: B1 VH with G35S
# VL: B1 VL with Y37Q
# notes: Fab
# B15: ZAP122m15 Fab (Fab, V domains shown)
# VH: B1 VH with S52Y
# VL: B1 VL with Y37Q
# notes: Fab
# B16: ZAP122m16 Fab (Fab, V domains shown)
# VH: B1 VH with S53Y
# VL: B1 VL with Y37Q
# notes: Fab
# B17: ZAP122m17 Fab (Fab, V domains shown)
# VH: B1 VH with R54S
# VL: B1 VL with Y37Q
# notes: Fab; also called clone m17
# B18: ZAP122m18 Fab (Fab, V domains shown)
# VH: B1 VH with R65S
# VL: B1 VL with Y37Q
# notes: Fab; also called clone m18
# B19: ZAP122m19 Fab (Fab, V domains shown)
# VH: B1 VH with R97A
# VL: B1 VL with Y37Q
# notes: Fab
# B20: ZAP122m20 Fab (Fab, V domains shown)
# VH: B1 VH with S98A
# VL: B1 VL with Y37Q
# notes: Fab
# B21: ZAP122m21 Fab (Fab, V domains shown)
# VH: B1 VH with G100A
# VL: B1 VL with Y37Q
# notes: Fab
# B22: ZAP122m22 Fab (Fab, V domains shown)
# VH: B1 VH with V101A
# VL: B1 VL with Y37Q
# notes: Fab
# B23: ZAP122m23 Fab (Fab, V domains shown)
# VH: B1 VH with T102A
# VL: B1 VL with Y37Q
# notes: Fab
# B24: ZAP122m24 Fab (Fab, V domains shown)
# VH: B1 VH with D103A
# VL: B1 VL with Y37Q
# notes: Fab
# B25: ZAP122m25 Fab (Fab, V domains shown)
# VH: B1 VH with F104A
# VL: B1 VL with Y37Q
# notes: Fab
# B26: ZAP122m26 Fab (Fab, V domains shown)
# VH: B1 VH with D105A
# VL: B1 VL with Y37Q
# notes: Fab
# B27: ZAP122m27 Fab (Fab, V domains shown)
# VH: B1 VH with F106A
# VL: B1 VL with Y37Q
# notes: Fab
# B28: ZAP122p1 Fab (Fab, V domains shown)
# VH: B1 VH
# VL: B1 VL with Y37Q, N92Q
# notes: Fab
# Target: T1, Recombinant hIL-21-Fc (AcroBiosystems) (human, UniProt Q9HBE4 30-162)
# T1 construct: bought; also called rhIL-21; not shown: Fc of the bought reagent, not described
# Experiment: SPR, Fab on captured rhIL-21-Fc
# T1 sequence (Q9HBE4 30-162): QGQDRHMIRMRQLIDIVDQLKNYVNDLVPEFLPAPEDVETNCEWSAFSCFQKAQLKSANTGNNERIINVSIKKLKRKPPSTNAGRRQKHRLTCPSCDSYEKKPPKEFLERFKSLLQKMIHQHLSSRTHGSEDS
binder,measurement,value
B1,Kd,0.0517 nM
same,koff,1.91e-05 s⁻¹
same,kon,369000 M⁻¹ s⁻¹
B2,Kd,0.034 nM
same,koff,1.23e-05 s⁻¹
same,kon,363000 M⁻¹ s⁻¹
B3,Kd,0.251 nM
same,koff,9.3e-05 s⁻¹
same,kon,370000 M⁻¹ s⁻¹
B4,Kd,3.49 nM
same,koff,0.000253 s⁻¹
same,kon,72400 M⁻¹ s⁻¹
B5,Kd,≤ 0.088 nM
same,koff,≤ 1e-05 s⁻¹
same,kon,114000 M⁻¹ s⁻¹
B6,Kd,0.0379 nM
same,koff,1.43e-05 s⁻¹
same,kon,379000 M⁻¹ s⁻¹
B7,Kd,< 0.0258 nM
same,koff,< 1e-05 s⁻¹
same,kon,387000 M⁻¹ s⁻¹
B8,Kd,9.49 nM
same,koff,0.00251 s⁻¹
same,kon,264000 M⁻¹ s⁻¹
B9,Kd,0.249 nM
same,koff,5.93e-05 s⁻¹
same,kon,238000 M⁻¹ s⁻¹
B10,Kd,2.4 nM
same,koff,0.000613 s⁻¹
same,kon,256000 M⁻¹ s⁻¹
B11,Kd,0.0404 nM
same,koff,1.46e-05 s⁻¹
same,kon,363000 M⁻¹ s⁻¹
B12,Kd,8.83 nM
same,koff,0.00424 s⁻¹
same,kon,481000 M⁻¹ s⁻¹
B13,Kd,0.0565 nM
same,koff,1.78e-05 s⁻¹
same,kon,316000 M⁻¹ s⁻¹
B14,Kd,1.01 nM
same,koff,0.000263 s⁻¹
same,kon,260000 M⁻¹ s⁻¹
B15,Kd,< 0.0174 nM
same,koff,< 1e-05 s⁻¹
same,kon,574000 M⁻¹ s⁻¹
B16,Kd,< 0.0283 nM
same,koff,< 1e-05 s⁻¹
same,kon,353000 M⁻¹ s⁻¹
B17,Kd,0.0842 nM
same,koff,2.81e-05 s⁻¹
same,kon,334000 M⁻¹ s⁻¹
B18,Kd,0.0463 nM
same,koff,1.4e-05 s⁻¹
same,kon,302000 M⁻¹ s⁻¹
B19,Kd,6.08 nM
same,koff,0.000775 s⁻¹
same,kon,127000 M⁻¹ s⁻¹
B20,Kd,0.0435 nM
same,koff,1.94e-05 s⁻¹
same,kon,446000 M⁻¹ s⁻¹
B21,Kd,2.19 nM
same,koff,0.0011 s⁻¹
same,kon,505000 M⁻¹ s⁻¹
B22,Kd,8.73 nM
same,koff,0.0034 s⁻¹
same,kon,389000 M⁻¹ s⁻¹
B23,Kd,0.137 nM
same,koff,3.29e-05 s⁻¹
same,kon,240000 M⁻¹ s⁻¹
B24,binding result,no binding
B25,Kd,5.6 nM
same,koff,0.00059 s⁻¹
same,kon,105000 M⁻¹ s⁻¹
B26,Kd,3.01 nM
same,koff,0.000701 s⁻¹
same,kon,233000 M⁻¹ s⁻¹
B27,Kd,< 0.0242 nM
same,koff,< 1e-05 s⁻¹
same,kon,414000 M⁻¹ s⁻¹
B28,Kd,0.0386 nM
same,koff,1.38e-05 s⁻¹
same,kon,357000 M⁻¹ s⁻¹
